Measurements as given in the supplement of paper PMC9112550, “Optimization of the antimicrobial peptide Bac7 by deep mutational scanning” (BMC Biology, 2022).

System: Escherichia coli TOP10
Test: shrunken log2 fold change of peptide-encoding DNA abundance (4.5 h post-induction vs induction); higher = less antimicrobial activity (less host growth inhibition)
Conditions: time post-induction: 4.5 h; library: site-saturation at positions 5, 18, 19, 20
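Further: peptides expressed intracellularly from a pBAD plasmid library in pooled LB shake-flask culture, induced with 0.3% L-arabinose, DNA abundance read by NGS, three biological replicates, DESeq2 with apeglm shrinkage.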

Row | Sequence | shrunken log2 fold change
1 | RRIRGRPPRLPRPRPRPVQFPRP | 0.535
2 | RRIRGRPPRLPRPRPRPVQNPRP | 0.588
3 | RRIRGRPPRLPRPRPRPVRVPRP | 0.856
4 | RRIRGRPPRLPRPRPRPVVNPRP | 0.0184
5 | RRIRGRPPRLPRPRPRPVVRPRP | 0.602
6 | RRIRGRPPRLPRPRPRPVWAPRP | 0.591
7 | RRIRGRPPRLPRPRPRPWCKPRP | -0.184
8 | RRIRGRPPRLPRPRPRPWDAPRP | 0.142
9 | RRIRGRPPRLPRPRPRPWDCPRP | -0.0637
10 | RRIRGRPPRLPRPRPRPWEMPRP | 0.0928
11 | RRIRGRPPRLPRPRPRPWENPRP | 1.02
12 | RRIRGRPPRLPRPRPRPWFAPRP | 0.0421
13 | RRIRGRPPRLPRPRPRPWGLPRP | 0.0474
14 | RRIRGRPPRLPRPRPRPWGMPRP | 0.0572
15 | RRIRGRPPRLPRPRPRPWGQPRP | 0.204
16 | RRIRGRPPRLPRPRPRPWHDPRP | -0.178
17 | RRIRGRPPRLPRPRPRPWIFPRP | 0.224
18 | RRIRGRPPRLPRPRPRPWIPPRP | -0.429
19 | RRIRGRPPRLPRPRPRPWIVPRP | 0.189
20 | RRIRGRPPRLPRPRPRPWKSPRP | -0.207
21 | RRIRGRPPRLPRPRPRPWKWPRP | 0.0325
22 | RRIRGRPPRLPRPRPRPWLCPRP | 0.266

Row | Sequence | shrunken log2 fold change
23 | RRIRGRPPRLPRPRPRPWNCPRP | -0.101
24 | RRIRGRPPRLPRPRPRPWPGPRP | 0.265
25 | RRIRGRPPRLPRPRPRPWPYPRP | -0.265
26 | RRIRGRPPRLPRPRPRPWTMPRP | 0.033
27 | RRIRGRPPRLPRPRPRPWYLPRP | -0.575
28 | RRIRGRPPRLPRPRPRPYAAPRP | 0.859
29 | RRIRGRPPRLPRPRPRPYCAPRP | -0.119
30 | RRIRGRPPRLPRPRPRPYCFPRP | 0.0329
31 | RRIRGRPPRLPRPRPRPYCQPRP | -0.32
32 | RRIRGRPPRLPRPRPRPYFCPRP | -0.119
33 | RRIRGRPPRLPRPRPRPYFDPRP | -0.00956
34 | RRIRGRPPRLPRPRPRPYGCPRP | -0.091
35 | RRIRGRPPRLPRPRPRPYGFPRP | -0.0296
36 | RRIRGRPPRLPRPRPRPYHIPRP | 0.158
37 | RRIRGRPPRLPRPRPRPYKRPRP | -0.217
38 | RRIRGRPPRLPRPRPRPYLLPRP | -0.407
39 | RRIRGRPPRLPRPRPRPYMFPRP | 0.221
40 | RRIRGRPPRLPRPRPRPYQGPRP | 0.0167
41 | RRIRGRPPRLPRPRPRPYQVPRP | 0.174
42 | RRIRGRPPRLPRPRPRPYRAPRP | -0.233
43 | RRIRGRPPRLPRPRPRPYRDPRP | 0.528
44 | RRIRGRPPRLPRPRPRPYRPPRP | -0.186

Row | Sequence | shrunken log2 fold change
45 | RRIRGRPPRLPRPRPRPYTFPRP | 0.151
46 | RRIRGRPPRLPRPRPRPYTGPRP | -0.707
47 | RRIRGRPPRLPRPRPRPYVKPRP | -0.417
48 | RRIRGRPPRLPRPRPRPYWGPRP | 0.198
49 | RRIRGRPPRLPRPRPRPYYRPRP | -0.0655
50 | RRIRGRPPRLPRPRPRPYYYPRP | -0.824
51 | RRIRHRPPRLPRPRPRPACPPRP | -0.0965
52 | RRIRHRPPRLPRPRPRPACTPRP | 0.0224
53 | RRIRHRPPRLPRPRPRPADNPRP | -0.306
54 | RRIRHRPPRLPRPRPRPAFGPRP | 0.105
55 | RRIRHRPPRLPRPRPRPAGAPRP | 0.199
56 | RRIRHRPPRLPRPRPRPAGCPRP | 0.242
57 | RRIRHRPPRLPRPRPRPAGEPRP | -0.0717
58 | RRIRHRPPRLPRPRPRPAHCPRP | 0.115
59 | RRIRHRPPRLPRPRPRPAHHPRP | 0.178
60 | RRIRHRPPRLPRPRPRPAHSPRP | 0.0457
61 | RRIRHRPPRLPRPRPRPAIFPRP | -0.00284
62 | RRIRHRPPRLPRPRPRPAIMPRP | -0.233
63 | RRIRHRPPRLPRPRPRPAKSPRP | 0.076
64 | RRIRHRPPRLPRPRPRPALGPRP | -0.0558
65 | RRIRHRPPRLPRPRPRPANSPRP | -0.271
66 | RRIRHRPPRLPRPRPRPAPEPRP | 0.0106

Row | Sequence | shrunken log2 fold change
67 | RRIRHRPPRLPRPRPRPAPFPRP | -0.257
68 | RRIRHRPPRLPRPRPRPAPVPRP | 0.466
69 | RRIRHRPPRLPRPRPRPAPYPRP | 0.296
70 | RRIRHRPPRLPRPRPRPAQTPRP | -0.1
71 | RRIRHRPPRLPRPRPRPARKPRP | -0.164
72 | RRIRHRPPRLPRPRPRPARQPRP | 0.14
73 | RRIRHRPPRLPRPRPRPASHPRP | 0.0269
74 | RRIRHRPPRLPRPRPRPASYPRP | -0.103
75 | RRIRHRPPRLPRPRPRPATAPRP | -0.0944
76 | RRIRHRPPRLPRPRPRPATCPRP | -0.196
77 | RRIRHRPPRLPRPRPRPATKPRP | -0.0317
78 | RRIRHRPPRLPRPRPRPAVRPRP | -0.273
79 | RRIRHRPPRLPRPRPRPAWAPRP | 0.48
80 | RRIRHRPPRLPRPRPRPAWPPRP | 0.613
81 | RRIRHRPPRLPRPRPRPAWWPRP | 0.157
82 | RRIRHRPPRLPRPRPRPCADPRP | -0.12
83 | RRIRHRPPRLPRPRPRPCALPRP | -0.339
84 | RRIRHRPPRLPRPRPRPCAYPRP | -0.0102
85 | RRIRHRPPRLPRPRPRPCCNPRP | 0.0722
86 | RRIRHRPPRLPRPRPRPCFMPRP | -0.404
87 | RRIRHRPPRLPRPRPRPCFRPRP | -0.346
88 | RRIRHRPPRLPRPRPRPCFSPRP | 0.0626

Row | Sequence | shrunken log2 fold change
89 | RRIRHRPPRLPRPRPRPCGAPRP | 0.0817
90 | RRIRHRPPRLPRPRPRPCGCPRP | -0.0378
91 | RRIRHRPPRLPRPRPRPCHYPRP | -0.4
92 | RRIRHRPPRLPRPRPRPCKHPRP | -1.38
93 | RRIRHRPPRLPRPRPRPCLCPRP | -0.268
94 | RRIRHRPPRLPRPRPRPCMMPRP | -0.0344
95 | RRIRHRPPRLPRPRPRPCMNPRP | -0.0607
96 | RRIRHRPPRLPRPRPRPCNAPRP | 0.0746
97 | RRIRHRPPRLPRPRPRPCPRPRP | -0.28
98 | RRIRHRPPRLPRPRPRPCREPRP | 0.0163
99 | RRIRHRPPRLPRPRPRPCRHPRP | -0.204
100 | RRIRHRPPRLPRPRPRPCRNPRP | -0.166
101 | RRIRHRPPRLPRPRPRPCRPPRP | 0.0355
102 | RRIRHRPPRLPRPRPRPCVKPRP | -0.121
103 | RRIRHRPPRLPRPRPRPCVSPRP | -0.311
104 | RRIRHRPPRLPRPRPRPCVWPRP | 0.0245
105 | RRIRHRPPRLPRPRPRPCYIPRP | -0.0479
106 | RRIRHRPPRLPRPRPRPDAAPRP | 0.453
107 | RRIRHRPPRLPRPRPRPDALPRP | 0.227
108 | RRIRHRPPRLPRPRPRPDEFPRP | -0.0223
109 | RRIRHRPPRLPRPRPRPDFRPRP | -0.0827
